Laboratory results published in patent publication US20210324076A1 (AMPHIVENA THERAPEUTICS, published 2021).
Where a chain is given by its changes, count along the chain named.

B1: CD33/CD3 2×2 T-cell engager 10 (bispecific antibody)
chain: DIQMTQSPSSLSASVGDRVTITCRSSTGAVTTSNYANWVQQKPGKAPKGLIGGTNKRAPGVPSRFSGSLIGDKATLTISSLQPEDFATYYCALWYSNLWVFGQGTKVEIKGGSGGSQVQLVQSGAEVKKPGASVKVSCKASGYTFTSYDINWVRQAPGQGLEWMGWMNPNSGNTGFAQKFQGRVTMTRDTSTSTVYMELSSLRSEDTAVYYCARDRANTDYSFGMDVWGQGTLVTVSSGGSGQSVLTQPPSASGTPGQRVTISCSGSRSNIGSNTVNWYQQLPGTAPKLLIYGNNQRPSGVPDRFSGSKSGTSASLAISGLQSEDEADYYCATWDDSLIGWVFGGGTKLTVLGGSGGSEVQLVESGGGLVQPGGSLRLSCAASGFTFSTYAMNWVRQAPGKGLEWVGRIRSKYNNYATYYADSVKDRFTISRDDSKNSLYLQMNSLKTEDTAVYYCARHGNFGNSYVSWFAYWGQGTLVTVSSAAAGSHHHHHH
B2: CD33/CD3 2×2 T-cell engager 01 (bispecific antibody)
chain: B1 chain with S63A, L69G, I70S, D72T, K73D, A74F, Y221F, F223Y
B3: CD33/CD3 2×2 T-cell engager 02 (bispecific antibody)
chain: B1 chain with S63A, L69G, I70S, D72T, K73D, A74F, N218V, S222Y, F223Y
B4: CD33/CD3 2×2 T-cell engager 03 (bispecific antibody)
chain: B1 chain with S63A, L69G, I70S, D72T, K73D, A74F
B5: CD33/CD3 2×2 T-cell engager 04 (bispecific antibody)
chain: B1 chain with S63A, L69G, I70S, D72T, K73D, A74F, F223L
B6: CD33/CD3 2×2 T-cell engager 09 (bispecific antibody)
chain: B1 chain with Y221F, F223Y
B7: CD33/CD3 2×2 T-cell engager 11 (bispecific antibody)
chain: B1 chain with F223L
B8: CD33/CD3 2×2 T-cell engager 13 (bispecific antibody)
chain: B1 chain with D72T, K73D, A74F, N218V, S222Y, F223Y
B9: CD33/CD3 2×2 T-cell engager 15 (bispecific antibody)
chain: B1 chain with G49A, W469Y
B10: CD33/CD3 2×2 T-cell engager 19 (bispecific antibody)
chain: DIQMTQSPSSLSASVGDRVTITCRSSTGAVTTSNYANWVQQKPGKAPKALIGGTNKRAPGVPSRFSGSLIGDKATLTISSLQPEDFATYYCALWYSNLWVFGQGTKVEIKGGSGGSQVQLVQSGAEVKKPGASVKVSCKASGYTFTSYYMHWVRQAPGQGLEWMGIINPSGGSTSYAQKFQGRVTMTRDTSTSTVYMELSSLRSEDTAVYYCARDVVPAAIDYYGMDVWGQGTTVTVSSGGSGQSVLTQPPSASGTPGQRVTISCSGSSSNIGSNTVNWYQQLPGTAPKLLIYSDNQRPSGVPDRFSGSKSGSSASLAISGLQSDDEADYYCATWDDSLNGAVFGGGTKLTVLGGSGGSEVQLVESGGGLVQPGGSLRLSCAASGFTFSTYAMNWVRQAPGKGLEWVGRIRSKYNNYATYYADSVKDRFTISRDDSKNSLYLQMNSLKTEDTAVYYCARHGNFGNSYVSYFAYWGQGTLVTVSSAAAGSHHHHHH
B11: CD33/CD3 2×2 T-cell engager 20 (bispecific antibody)
chain: B10 chain with A49G, D72T, K73D, A74F, Y470W
B12: CD33/CD3 2×2 T-cell engager 07 (bispecific antibody)
chain: DIQMTQSPSSLSASVGDRVTITCRSSTGAVTTSNYANWVQQKPGKAPKALIGGTNKRAPGVPSRFSGSLIGDKATLTISSLQPEDFATYYCALWYSNLWVFGQGTKVEIKGGSGGSQVQLQESGGGVVQPGRSLRLSCAASGFSFSNYGIHWVRQAPGKGLEWVALISYDGNKKFYADSVKGRFAISRDTSKNTVDLQMTSLRPEDTAVYYCAKDRLESAAFDYWGQGTLVTVSSGGSGGSSYELTQPPSVSVAPGQTAMITCGGNNIGSTTVHWYQQKPGQAPVLVVYDDNERPSGIPERFSGSNSGSTATLTINRVEAGDEADYYCQVWDSGSDHVVFGGGTKLTVLGGSGGSEVQLVESGGGLVQPGGSLRLSCAASGFTFSTYAMNWVRQAPGKGLEWVGRIRSKYNNYATYYADSVKDRFTISRDDSKNSLYLQMNSLKTEDTAVYYCARHGNFGNSYVSYFAYWGQGTLVTVSSAAAGSHHHHHH
B13: CD33/CD3 2×2 T-cell engager 05 (bispecific antibody)
chain: DIQMTQSPSSLSASVGDRVTITCRSSTGAVTTSNYANWVQQKPGKAPKGLIGGTNKRAPGVPARFSGSGSGTDFTLTISSLQPEDFATYYCALWYSNLWVFGQGTKVEIKGGSGGSQVQLVQSGAEVKKPGASVKVSCKASGYTFTSYDINWVRQAPGQGLEWMGWMNPNSGNTGFAQKFQGRVTMTRDTSTSTVYMELSSLRSEDTAVYYCARDRANTDYSFGMDVWGQGTLVTVSSGGSGGQSVLTQPPSASGTPGQRVTISCSGSRSNIGSNTVNWYQQLPGTAPKLLIYGNNQRPSGVPDRFSGSKSGTSASLAISGLQSEDEADYYCATWDDSLIGWVFGGGTKLTVLGGSGGSEVQLVESGGGLVQPGGSLRLSCAASGFTFSTYAMNWVRQAPGKGLEWVGRIRSKYNNYATYYADSVKDRFTISRDDSKNSLYLQMNSLKTEDTAVYYCARHGNFGNSYVSWFAYWGQGTLVTVSSAAAGSHHHHHH
B14: CD33/CD3 2×2 T-cell engager 06 (bispecific antibody)
chain: B13 chain with F223L
B15: CD33/CD3 2×2 T-cell engager 23 (bispecific antibody)
chain: DIQMTQSPSSLSASVGDRVTITCRSSTGAVTTSNYANWVQQKPGKAPKGLIGGTNKRAPGVPSRFSGSLIGTDFTLTISSLQPEDFATYYCALWYSNLWVFGQGTKVEIKGGSGGSQVQLVQSGAEVKKPGSSVKVSCKASGGTFSSYGISWVRQAPGQGLEWMGGIIPIFGSAHYAQKFQGRVTITADESTSTAYMELSSLRSEDTAVYYCAREYYYDSSEWAFDIWGQGTLVTVSSGGSGQSVLTQPPSASGTPGQRVTISCSGSSSNIGSNTVKWYQQLPGTAPKLLIYSNNQRSSGVPDRFSGSKSGSSASLAISGLQSEDEADYYCAAWDDSLNGYVFGGGTKLTVLGGSGGSEVQLVESGGGLVQPGGSLRLSCAASGFTFSTYAMNWVRQAPGKGLEWVGRIRSKYNNYATYYADSVKDRFTISRDDSKNSLYLQMNSLKTEDTAVYYCARHGNFGNSYVSWFAYWGQGTLVTVSS
B16: CD33/CD3 2×2 T-cell engager 21 (bispecific antibody)
chain: DIQMTQSPSSLSASVGDRVTITCRSSTGAVTTSNYANWVQQKPGKAPKALIGGTNKRAPGVPSRFSGSLIGDKATLTISSLQPEDFATYYCALWYSNLWVFGQGTKVEIKGGSGGSQVQLVQSGAEVKKPGSSVKVSCKASGGTFSSYAISWVRQAPGQGLEWMGGIYPIFGSANYAQKFQGRVTITADESTSTAYMELSSLRSEDTAVYYCAREYYYDSSEWAFDIWGQGTLVTVSSGGSGQSVLTQPPSASGTPGQRVTISCSGSSSNIGSNIVNWYQQLPGTAPKLLIYSNNQRPSGVPDRFSGSKSGTSASLAISGLQSEDEADYYCAAWDDSLKGYVFGGGTKLTVLGGSGGSEVQLVESGGGLVQPGGSLRLSCAASGFTFSTYAMNWVRQAPGKGLEWVGRIRSKYNNYATYYADSVKDRFTISRDDSKNSLYLQMNSLKTEDTAVYYCARHGNFGNSYVSYFAYWGQGTLVTVSSAAAGSHHHHHH
B17: CD33/CD3 2×2 T-cell engager 22 (bispecific antibody)
chain: B16 chain with A149G, Y168I, N175H, I275T, N277K, P298S, T312S, K339N
B18: CD33/CD3 2×2 T-cell engager 24 (bispecific antibody)
chain: DIQMTQSPSSLSASVGDRVTITCRSSTGAVTTSNYANWVQQKPGKAPKALIGGTNKRAPGVPSRFSGSLIGDKATLTISSLQPEDFATYYCALWYSNLWVFGQGTKVEIKGGSGGSQVQLVQSGAEVKKPGSSVKVSCKASGGTFDSYAISWVRQAPGQGLEWMGGIIPIFGSAHYSQKFQGRVTITADESTSTAYMELSSLRSEDTAVYYCAREYYYDSSEWAFDIWGQGTLVTVSSGGSGQSVLTQPPSASGTPGQRVTISCSGSSSNIGDNVVNWYQQLPGTAPKLLIYSTNKRPSGVPDRFSGSKSGSSASLAISGLQSEDEADYYCAAWDDSLSAYVFGGGTKLTVLGGSGGSEVQLVESGGGLVQPGGSLRLSCAASGFTFSTYAMNWVRQAPGKGLEWVGRIRSKYNNYATYYADSVKDRFTISRDDSKNSLYLQMNSLKTEDTAVYYCARHGNFGNSYVSYFAYWGQGTLVTVSSAAAGSHHHHHH
B19: CD33/CD3 2×2 T-cell engager 17 (bispecific antibody)
chain: DIQMTQSPSSLSASVGDRVTITCRSSTGAVTTSNYANWVQQKPGKAPKALIGGTNKRAPGVPSRFSGSLIGDKATLTISSLQPEDFATYYCALWYSNLWVFGQGTKVEIKGGSGGSQVQLVQSGAEVKKPGESLKISCKGSGYSFTSYWIGWVRQMPGKGLEWMGIIYPGDSDTRYSPSFQGQVTISADKSISTAYLQWSSLKASDTAMYYCARHKRGSDAFDIWGQGTTVTVSSGGSGQSVLTQPPSVSGAPGQRVTISCTGSSSNIGAGYDVHWYQQLPGTAPKLLIYGNSNRPSGVPDRFSGSKSGTSASLAITGLQAEDEADYYCQSYDSSLSDVVFGGGTKLTVLGGSGGSEVQLVESGGGLVQPGGSLRLSCAASGFTFSTYAMNWVRQAPGKGLEWVGRIRSKYNNYATYYADSVKDRFTISRDDSKNSLYLQMNSLKTEDTAVYYCARHGNFGNSYVSYFAYWGQGTLVTVSSAAAGSHHHHHH

Tests used:
human CD3 = human CD3 (human, UniProt P07766 23-207; P09693 23-182; P04234 22-171; P20963 22-164); experiment: cell-based or functional assay
human CD33 = human CD33 (human, UniProt P20138 18-364); experiment: cell-based or functional assay
Chain of human CD33 (P20138 18-364): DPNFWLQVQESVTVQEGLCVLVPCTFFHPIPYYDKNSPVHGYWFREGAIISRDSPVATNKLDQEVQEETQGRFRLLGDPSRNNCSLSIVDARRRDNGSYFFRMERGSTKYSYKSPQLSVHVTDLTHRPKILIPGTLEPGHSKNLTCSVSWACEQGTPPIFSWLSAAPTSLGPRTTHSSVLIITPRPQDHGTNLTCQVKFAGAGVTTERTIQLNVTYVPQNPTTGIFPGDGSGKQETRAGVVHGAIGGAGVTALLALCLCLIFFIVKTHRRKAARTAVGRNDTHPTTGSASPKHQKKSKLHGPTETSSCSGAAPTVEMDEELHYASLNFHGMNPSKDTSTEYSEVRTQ

Chain of human CD3 (P07766 23-207, chain 1 of 4): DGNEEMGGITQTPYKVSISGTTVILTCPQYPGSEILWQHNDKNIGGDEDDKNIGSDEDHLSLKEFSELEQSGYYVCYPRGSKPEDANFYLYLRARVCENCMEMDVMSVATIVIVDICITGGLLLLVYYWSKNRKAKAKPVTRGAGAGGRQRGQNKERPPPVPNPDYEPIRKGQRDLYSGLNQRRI
Chain of human CD3 (P09693 23-182, chain 2 of 4): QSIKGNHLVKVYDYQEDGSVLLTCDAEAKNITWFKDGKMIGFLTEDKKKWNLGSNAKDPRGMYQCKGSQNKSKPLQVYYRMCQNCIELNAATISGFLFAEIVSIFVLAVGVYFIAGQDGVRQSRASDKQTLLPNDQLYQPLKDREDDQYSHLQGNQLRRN
Chain of human CD3 (P04234 22-171, chain 3 of 4): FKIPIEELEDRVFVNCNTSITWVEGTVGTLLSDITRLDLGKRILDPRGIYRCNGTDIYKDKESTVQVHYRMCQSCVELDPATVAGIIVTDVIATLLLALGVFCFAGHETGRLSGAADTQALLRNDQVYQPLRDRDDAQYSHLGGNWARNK
Chain of human CD3 (P20963 22-164, chain 4 of 4): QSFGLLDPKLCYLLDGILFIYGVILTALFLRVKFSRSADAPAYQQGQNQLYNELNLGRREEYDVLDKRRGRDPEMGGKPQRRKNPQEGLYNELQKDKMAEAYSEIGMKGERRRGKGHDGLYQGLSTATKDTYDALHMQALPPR

Binder | CD25 Induction EC50 (PBMC, 24 h) (human CD3) [nM] | CD69 Induction EC50 (PBMC, 24 h) (human CD3) [nM] | IC50 lysis of KG-1 cells with human T cells, E:T 5:1, 24 h (human CD33) [nM]
B1 | 0.01 | 0.006 | 
B2 | 0.092 | 0.091 | 
B3 | 0.042 | 0.027 | 
B4 | 0.117 | 0.087 | 
B5 | 0.094 | 0.062 | 
B6 | 0.011 | 0.007 | 
B7 | 0.011 | 0.005 | 
B8 | 0.03 | 0.022 | 
B9 | 0.006 | 0.007 | 
B10 | 0.009 | 0.005 | ~0.005
B11 | 0.098 | 0.075 | 
B12 | 0.134 | 0.065 | 
B13 | 0.116 | 0.074 | 
B14 | 0.039 | 0.021 | 
B15 | 0.041 | 0.017 | 
B16 |  | 0.225 | 
B17 | 0.01 | 0.004 | 
B18 |  | 0.057 | 
B19 | 0.03 | 0.114 | 
